The text below walks through data of patent US20200199241A1 (Chugai, published 2020).

Substitutions are numbered along the chain they refer to. Names and notes keep the numbering of the source.

Holding throughout (experiment): SPR, captured antibody;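 note: antibody captured on a sensor chip, Fcγ receptor flowed over at 25 °C, receptor binding normalized to the captured antibody amount and expressed relative to the reference antibody ×100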
In test [1] the target is T1, human FcγRIa (human, UniProt P12314 16-292, limits assumed).
T1 construct: also called FcgRIa; hFcgRIa
Procedure: (§1) Interaction between each modified antibody and Fcγ receptor prepared in the manner described above was analyzed using the BIACORE™ T100 surface plasmon resonance system (GE Healthcare), BIACORE™ T200 surface plasmon resonance system (GE Healthcare), BIACORE™ A100 surface plasmon resonance system or BIACORE™ 4000 surface plasmon resonance system. HBS-EP+ (GE Healthcare) was used for the running buffer, and measurements were carried out at 25° C. The chips used were chips in which antigen peptides, Protein A (Thermo Scientific), Protein A/G (Thermo Scientific) or Protein L (ACTIGEN® protein (Alltech or BioVision) were immobilized on the Series S Sensor Chip CMS (GE Healthcare) or Series S Sensor Chip CM4 (GE Healthcare) by amine coupling, or chips in which preliminarily biotinylated antigen peptides were allowed to interact and then immobilized on the Series S Sensor Chip SA (certified) (GE Healthcare). The target antibodies were captured on these sensor chips, Fcγ receptor diluted with the running buffer was allowed to interact, followed by measurement of the amount of bound antibody. The amounts bound were compared between antibodies. However, since the amount of Fcγ receptor bound depends on the amount of captured antibody, the values used for comparison were first corrected by dividing the amount of Fcγ receptor bound by the captured amount of each antibody. Through reaction with 10 mM glycine-HCl at pH 1.5, the sensor chips were regenerated by washing off antibody captured on the sensor chips and used repeatedly.
(§2) Binding strength was evaluated according to the following method based on the results of analyzing the interaction with each FcγR. […] That value was then further multiplied by 100, and the resulting value was used as an indicator of relative binding activity to each FcγR.

Test [2] deals with T2, human FcγRIIa(R) (human, UniProt P12318 36-217).
T2 construct: also called FcgRIIaR; hFcgRIIa(R)
T2 chain: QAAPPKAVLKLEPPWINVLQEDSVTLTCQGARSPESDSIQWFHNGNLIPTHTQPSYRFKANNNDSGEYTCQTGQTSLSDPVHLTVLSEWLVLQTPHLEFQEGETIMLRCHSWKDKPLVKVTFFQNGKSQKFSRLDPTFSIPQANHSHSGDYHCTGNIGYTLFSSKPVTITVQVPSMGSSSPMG
Procedure: as §1, §2

For test [3], the target named is T3, human FcγRIIa(H) (human, UniProt P12318 36-217).
T3 construct: also called FcgRIIaH; hFcgRIIa(H)
T3 sequence: T2 chain with R133H
Procedure: as §1, §2

The target in test [4] is T4, human FcγRIIb (human, UniProt P31994 43-217, limits assumed).
T4 construct: also called FcgRIIb; hFcgRIIb
T4 sequence: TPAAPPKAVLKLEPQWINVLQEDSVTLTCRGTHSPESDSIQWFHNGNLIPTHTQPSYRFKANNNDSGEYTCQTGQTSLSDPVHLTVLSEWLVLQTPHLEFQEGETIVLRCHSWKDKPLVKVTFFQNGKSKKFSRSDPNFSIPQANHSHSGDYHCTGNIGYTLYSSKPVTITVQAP
Procedure: as §1, §2

T1 sequence (P12314 16-292 limits assumed): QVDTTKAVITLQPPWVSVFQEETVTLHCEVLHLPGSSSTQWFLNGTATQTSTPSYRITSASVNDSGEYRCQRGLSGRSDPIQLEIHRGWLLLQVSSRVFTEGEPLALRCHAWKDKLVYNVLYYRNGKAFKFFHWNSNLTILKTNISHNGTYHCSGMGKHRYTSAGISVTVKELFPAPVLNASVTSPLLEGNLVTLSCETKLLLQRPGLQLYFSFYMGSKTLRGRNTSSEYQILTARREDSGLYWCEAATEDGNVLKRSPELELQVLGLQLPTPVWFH

B1: GpH7-B3 S298R/GpL16-k0 (antibody, human IgG1)
heavy: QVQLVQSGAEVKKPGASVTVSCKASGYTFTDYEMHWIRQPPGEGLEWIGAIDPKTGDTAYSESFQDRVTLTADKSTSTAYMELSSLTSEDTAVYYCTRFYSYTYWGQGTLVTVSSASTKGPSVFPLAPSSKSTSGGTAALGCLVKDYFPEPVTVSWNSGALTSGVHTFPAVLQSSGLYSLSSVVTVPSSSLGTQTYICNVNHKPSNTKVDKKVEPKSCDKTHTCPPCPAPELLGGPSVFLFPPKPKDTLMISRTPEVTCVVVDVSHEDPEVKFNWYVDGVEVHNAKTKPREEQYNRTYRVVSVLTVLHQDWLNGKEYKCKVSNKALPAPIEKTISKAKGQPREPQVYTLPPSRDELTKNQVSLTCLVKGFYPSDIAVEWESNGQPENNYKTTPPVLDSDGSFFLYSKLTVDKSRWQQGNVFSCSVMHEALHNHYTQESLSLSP
light: DIVMTQSPLSLPVTPGEPASISCQASESLVHSNRNTYLHWYLQKPGQSPQLLIYKVSNRFSGVPDRFSGSGSGTDFTLKISRVEAEDVGVYYCSQNTHVPPTFGQGTKVEIE
notes: B3 variant; copies: 2 + 2
Turning to B1, the relative binding activity in test [1] was 92 % of GpH7-B3/GpL16-k0; in test [2], 62 % of GpH7-B3/GpL16-k0; in test [3], 36 % of GpH7-B3/GpL16-k0; in test [4] it was 22 % of GpH7-B3/GpL16-k0.

B2: GpH7-B3 Y296G/GpL16-k0 (antibody, human IgG1)
heavy: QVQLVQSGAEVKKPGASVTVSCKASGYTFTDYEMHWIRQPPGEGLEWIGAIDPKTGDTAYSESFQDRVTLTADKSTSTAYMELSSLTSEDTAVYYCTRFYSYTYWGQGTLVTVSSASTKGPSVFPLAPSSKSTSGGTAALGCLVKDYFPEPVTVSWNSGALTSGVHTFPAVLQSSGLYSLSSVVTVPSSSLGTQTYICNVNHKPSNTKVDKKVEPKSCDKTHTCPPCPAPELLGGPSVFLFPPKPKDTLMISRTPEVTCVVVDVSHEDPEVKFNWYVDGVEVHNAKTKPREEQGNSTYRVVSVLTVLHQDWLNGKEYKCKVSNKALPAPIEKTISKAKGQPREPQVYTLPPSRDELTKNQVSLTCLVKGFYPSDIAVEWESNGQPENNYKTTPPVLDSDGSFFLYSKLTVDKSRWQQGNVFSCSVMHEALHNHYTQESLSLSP
light: B1 light
notes: B3 variant; copies: 2 + 2
With B2, the relative binding activity was 100 % of GpH7-B3/GpL16-k0 in test [1], 77 % of GpH7-B3/GpL16-k0 in test [2], 83 % of GpH7-B3/GpL16-k0 in test [3] and 58 % of GpH7-B3/GpL16-k0 in test [4].

B3: GpH7-B3 Y300P/GpL16-k0 (antibody, human IgG1)
heavy: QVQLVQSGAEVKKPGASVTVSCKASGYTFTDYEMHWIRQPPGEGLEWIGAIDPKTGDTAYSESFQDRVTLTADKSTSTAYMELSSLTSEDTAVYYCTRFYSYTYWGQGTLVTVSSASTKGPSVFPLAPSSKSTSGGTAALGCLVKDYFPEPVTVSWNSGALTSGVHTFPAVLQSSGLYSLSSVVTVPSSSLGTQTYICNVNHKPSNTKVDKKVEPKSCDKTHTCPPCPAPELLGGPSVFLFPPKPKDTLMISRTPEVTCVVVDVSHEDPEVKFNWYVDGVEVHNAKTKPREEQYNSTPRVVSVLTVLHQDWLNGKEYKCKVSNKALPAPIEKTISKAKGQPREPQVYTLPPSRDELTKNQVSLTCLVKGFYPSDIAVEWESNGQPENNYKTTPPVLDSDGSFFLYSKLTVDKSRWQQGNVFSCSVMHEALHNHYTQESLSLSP
light: B1 light
notes: B3 variant; copies: 2 + 2
With B3, the relative binding activity in test [1] is 9 % of GpH7-B3/GpL16-k0; in test [2] it was -1 % of GpH7-B3/GpL16-k0; in test [3], 0 % of GpH7-B3/GpL16-k0; in test [4], -1 % of GpH7-B3/GpL16-k0.

B4: GpH7-B3 S298Y/GpL16-k0 (antibody, human IgG1)
heavy: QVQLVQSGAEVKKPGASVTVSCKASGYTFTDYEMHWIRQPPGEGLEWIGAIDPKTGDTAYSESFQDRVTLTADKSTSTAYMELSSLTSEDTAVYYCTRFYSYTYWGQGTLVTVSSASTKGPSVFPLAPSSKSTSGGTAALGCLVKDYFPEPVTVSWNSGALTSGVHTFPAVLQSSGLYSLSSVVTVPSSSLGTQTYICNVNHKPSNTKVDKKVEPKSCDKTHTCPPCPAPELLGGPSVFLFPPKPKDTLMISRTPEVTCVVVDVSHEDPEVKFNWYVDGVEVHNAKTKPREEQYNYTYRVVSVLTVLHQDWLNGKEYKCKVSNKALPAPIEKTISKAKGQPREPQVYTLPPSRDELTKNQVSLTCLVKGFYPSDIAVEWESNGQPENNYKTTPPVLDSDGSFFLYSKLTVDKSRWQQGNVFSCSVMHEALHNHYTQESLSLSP
light: B1 light
notes: B3 variant; copies: 2 + 2
Turning to B4, the relative binding activity in test [1] was 100 % of GpH7-B3/GpL16-k0; in test [2] it was 33 % of GpH7-B3/GpL16-k0; in test [3], 35 % of GpH7-B3/GpL16-k0; in test [4], 23 % of GpH7-B3/GpL16-k0.

B5: GpH7-B3 Y300K/GpL16-k0 (antibody, human IgG1)
heavy: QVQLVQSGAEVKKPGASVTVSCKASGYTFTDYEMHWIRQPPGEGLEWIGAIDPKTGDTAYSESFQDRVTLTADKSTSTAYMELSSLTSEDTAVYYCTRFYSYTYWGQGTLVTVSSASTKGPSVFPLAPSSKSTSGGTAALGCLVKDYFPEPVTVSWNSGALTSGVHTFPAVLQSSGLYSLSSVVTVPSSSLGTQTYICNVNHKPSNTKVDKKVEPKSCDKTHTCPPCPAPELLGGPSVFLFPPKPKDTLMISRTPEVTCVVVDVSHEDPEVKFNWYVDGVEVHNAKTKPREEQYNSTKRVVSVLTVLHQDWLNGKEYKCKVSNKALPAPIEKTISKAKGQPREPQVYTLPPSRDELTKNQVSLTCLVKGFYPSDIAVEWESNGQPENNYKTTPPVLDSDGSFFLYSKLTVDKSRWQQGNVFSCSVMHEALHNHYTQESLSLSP
light: B1 light
notes: B3 variant; copies: 2 + 2
For the molecule B5, the relative binding activity in test [1] is 95 % of GpH7-B3/GpL16-k0; in test [2], 59 % of GpH7-B3/GpL16-k0; in test [3], 56 % of GpH7-B3/GpL16-k0; in test [4], 45 % of GpH7-B3/GpL16-k0.

B6: GpH7-B3 Y296K/GpL16-k0 (antibody, human IgG1)
heavy: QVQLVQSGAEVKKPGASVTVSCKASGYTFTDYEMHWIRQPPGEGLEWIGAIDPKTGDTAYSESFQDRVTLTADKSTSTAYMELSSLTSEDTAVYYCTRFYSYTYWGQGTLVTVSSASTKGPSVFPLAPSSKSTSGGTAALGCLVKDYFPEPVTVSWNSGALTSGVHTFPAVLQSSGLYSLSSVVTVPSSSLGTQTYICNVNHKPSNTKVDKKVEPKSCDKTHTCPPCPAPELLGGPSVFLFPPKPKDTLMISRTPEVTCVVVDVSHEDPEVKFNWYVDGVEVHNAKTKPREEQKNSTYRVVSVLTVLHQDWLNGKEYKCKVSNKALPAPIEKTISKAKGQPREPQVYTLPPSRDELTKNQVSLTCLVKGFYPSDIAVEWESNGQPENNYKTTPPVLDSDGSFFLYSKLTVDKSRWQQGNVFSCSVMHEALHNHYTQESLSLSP
light: B1 light
notes: B3 variant; copies: 2 + 2
In the case of B6, the relative binding activity in test [1] is 99 % of GpH7-B3/GpL16-k0; in test [2] it was 70 % of GpH7-B3/GpL16-k0; in test [3] it was 66 % of GpH7-B3/GpL16-k0; in test [4], 45 % of GpH7-B3/GpL16-k0.

B7: GpH7-B3 S324K/GpL16-k0 (antibody, human IgG1)
heavy: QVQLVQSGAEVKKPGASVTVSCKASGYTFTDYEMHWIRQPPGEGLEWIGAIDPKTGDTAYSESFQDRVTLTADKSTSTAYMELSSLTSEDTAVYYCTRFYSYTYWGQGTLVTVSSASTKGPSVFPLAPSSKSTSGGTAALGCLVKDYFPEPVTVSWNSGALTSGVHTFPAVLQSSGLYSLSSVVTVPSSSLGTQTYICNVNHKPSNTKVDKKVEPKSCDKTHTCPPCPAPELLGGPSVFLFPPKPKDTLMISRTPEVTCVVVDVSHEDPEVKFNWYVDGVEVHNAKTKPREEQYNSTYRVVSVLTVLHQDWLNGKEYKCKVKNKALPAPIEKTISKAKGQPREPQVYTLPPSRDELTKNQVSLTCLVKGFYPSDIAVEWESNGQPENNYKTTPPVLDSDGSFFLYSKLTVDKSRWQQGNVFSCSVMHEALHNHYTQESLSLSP
light: B1 light
notes: B3 variant; copies: 2 + 2
Regarding B7, the relative binding activity in test [1] was 94 % of GpH7-B3/GpL16-k0; in test [2], 75 % of GpH7-B3/GpL16-k0; in test [3], 97 % of GpH7-B3/GpL16-k0; in test [4], 64 % of GpH7-B3/GpL16-k0.

B8: GpH7-B3 Y300R/GpL16-k0 (antibody, human IgG1)
heavy: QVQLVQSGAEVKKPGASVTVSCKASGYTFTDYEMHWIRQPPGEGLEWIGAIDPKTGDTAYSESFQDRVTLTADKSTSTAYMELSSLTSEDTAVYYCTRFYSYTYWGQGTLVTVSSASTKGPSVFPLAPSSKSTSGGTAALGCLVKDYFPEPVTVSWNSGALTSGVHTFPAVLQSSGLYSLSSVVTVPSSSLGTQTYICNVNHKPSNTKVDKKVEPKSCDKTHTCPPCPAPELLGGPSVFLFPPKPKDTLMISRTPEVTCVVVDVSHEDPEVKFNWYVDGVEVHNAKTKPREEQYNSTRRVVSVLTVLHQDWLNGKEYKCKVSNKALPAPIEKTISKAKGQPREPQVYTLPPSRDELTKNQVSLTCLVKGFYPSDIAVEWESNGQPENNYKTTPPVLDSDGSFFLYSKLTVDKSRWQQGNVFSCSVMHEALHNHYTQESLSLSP
light: B1 light
notes: B3 variant; copies: 2 + 2
Turning to B8, the relative binding activity in test [1] was 91 % of GpH7-B3/GpL16-k0; in test [2] it was 38 % of GpH7-B3/GpL16-k0; in test [3], 34 % of GpH7-B3/GpL16-k0; in test [4], 25 % of GpH7-B3/GpL16-k0.

B9: GpH7-B3 Y296R/GpL16-k0 (antibody, human IgG1)
heavy: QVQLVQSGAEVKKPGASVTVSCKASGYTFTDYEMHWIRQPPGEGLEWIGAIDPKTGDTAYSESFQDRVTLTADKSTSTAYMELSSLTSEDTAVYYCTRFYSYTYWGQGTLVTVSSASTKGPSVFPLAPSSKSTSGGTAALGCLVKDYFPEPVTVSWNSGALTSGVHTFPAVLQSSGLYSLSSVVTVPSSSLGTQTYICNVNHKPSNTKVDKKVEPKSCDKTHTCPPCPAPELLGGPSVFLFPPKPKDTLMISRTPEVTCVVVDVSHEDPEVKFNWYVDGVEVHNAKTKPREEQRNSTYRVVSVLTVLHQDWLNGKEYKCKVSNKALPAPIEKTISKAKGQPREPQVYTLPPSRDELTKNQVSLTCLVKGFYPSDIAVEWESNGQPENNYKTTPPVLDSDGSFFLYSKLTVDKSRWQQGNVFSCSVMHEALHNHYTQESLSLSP
light: B1 light
notes: B3 variant; copies: 2 + 2
Regarding B9, the relative binding activity was 100 % of GpH7-B3/GpL16-k0 in test [1], 77 % of GpH7-B3/GpL16-k0 in test [2], 74 % of GpH7-B3/GpL16-k0 in test [3] and 52 % of GpH7-B3/GpL16-k0 in test [4].

B10: GpH7-B3 Y296P/GpL16-k0 (antibody, human IgG1)
heavy: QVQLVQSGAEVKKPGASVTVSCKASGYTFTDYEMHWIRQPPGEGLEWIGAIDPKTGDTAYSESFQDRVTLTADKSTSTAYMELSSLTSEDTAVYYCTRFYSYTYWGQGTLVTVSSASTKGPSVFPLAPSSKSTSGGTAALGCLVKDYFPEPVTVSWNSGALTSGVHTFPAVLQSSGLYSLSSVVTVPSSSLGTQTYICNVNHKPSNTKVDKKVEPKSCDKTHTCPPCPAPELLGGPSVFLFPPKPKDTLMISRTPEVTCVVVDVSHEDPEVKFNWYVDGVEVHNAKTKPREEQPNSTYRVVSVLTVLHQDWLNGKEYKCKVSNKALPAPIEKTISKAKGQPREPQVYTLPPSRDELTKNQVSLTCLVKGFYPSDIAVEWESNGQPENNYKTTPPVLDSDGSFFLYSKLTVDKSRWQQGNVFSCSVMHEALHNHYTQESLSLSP
light: B1 light
notes: B3 variant; copies: 2 + 2
Consider B10, for which the relative binding activity was 45 % of GpH7-B3/GpL16-k0 in test [1], 10 % of GpH7-B3/GpL16-k0 in test [2], 8 % of GpH7-B3/GpL16-k0 in test [3] and 7 % of GpH7-B3/GpL16-k0 in test [4].

B11: GpH7-B3 S324P/GpL16-k0 (antibody, human IgG1)
heavy: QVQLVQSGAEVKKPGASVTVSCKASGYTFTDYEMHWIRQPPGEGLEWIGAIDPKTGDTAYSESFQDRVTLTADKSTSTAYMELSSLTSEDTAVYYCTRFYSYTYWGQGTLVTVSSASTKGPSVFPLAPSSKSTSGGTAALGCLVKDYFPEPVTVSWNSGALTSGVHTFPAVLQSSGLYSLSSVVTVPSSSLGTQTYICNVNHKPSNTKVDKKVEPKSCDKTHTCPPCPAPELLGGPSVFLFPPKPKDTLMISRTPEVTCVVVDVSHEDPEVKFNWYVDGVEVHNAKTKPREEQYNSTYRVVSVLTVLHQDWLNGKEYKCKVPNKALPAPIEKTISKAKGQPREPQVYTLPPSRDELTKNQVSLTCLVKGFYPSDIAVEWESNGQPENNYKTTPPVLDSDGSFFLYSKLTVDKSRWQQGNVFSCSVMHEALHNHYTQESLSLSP
light: B1 light
notes: B3 variant; copies: 2 + 2
In the case of B11, the relative binding activity in test [1] is 91 % of GpH7-B3/GpL16-k0; in test [2], 34 % of GpH7-B3/GpL16-k0; in test [3], 14 % of GpH7-B3/GpL16-k0; in test [4], 36 % of GpH7-B3/GpL16-k0.
